The chains are these.
B3: STING cytosolic domain (hSTING CTD lacking CTT3, aa 137-366) (domain or fragment)
chain: KGLAPAEISAVCEKGNFNVAHGLAWSYYIGYLRLILPELQARIRTYNQHYNNLLRGAVSQRLYILLPLDCGVPDNLSMADPNIRFLDKLPQQTGDHAGIKDRVYSNSIYELLENGQRAGTCVLEYATPLQTLFAMSQYSQAGFSREDRLEQAKLFCRTLEDILADAPESQNNCRLIAYQEPADDSSFSLSQEVLRHLRQEEKEEVTVGSLKTSAVPSTSTMSQEPELLIS

Where no end group is shown, it is not given here.

In data set [1] the target is STING cytosolic domain (hSTING CTD lacking CTT3, aa 137-366) (human) (UniProt Q86WV6). Briefly: MST.
Data set [2] has as its target B3. Briefly: MST.
Data set [3] deals with B3. Description: NMR titration.
For the next data set, the target named is STING-R284S CTD (human, UniProt Q86WV6 137-366, R284S). Description: NMR titration.
The data set “SEC” concerns the molecule itself. Description: SEC.

One may read the Kd as the free concentration of one partner at which half of the binding sites on the other are occupied at equilibrium, for simple one-to-one binding. A higher Kd goes with lower affinity.

On to CTT8 peptide (MFEKPLPL), for which, in data set [1], the fold enhancement of affinity over CTT7 was found to be 2.7 fold.

B1: CTT7 peptide (unlabelled) (peptide)
peptide: MEKPLPL
In data set [2], B1 displayed a Kd of 10.7 µM. That is a double-digit micromolar value.

B2: 15N-labelled CTT7 (peptide)
peptide: MEKPLPL
modifications: also: 15N isotopically labelled amino acids
Take B2: the binding result (in data set [3]; in the data set with STING-R284S CTD) was “binds” each time.

As for B3, the binding result in the data set “SEC” is reported as “binds”.

The record behind these values is article doi:10.1101/2023.08.11.553045 (bioRxiv, 2023).
